T1: human CCL17 (human, UniProt Q92583 24-94)
T1 construct: Biotinylated in the ELISA screens; also called huCCL17; Bt-huCCL17
T1 sequence: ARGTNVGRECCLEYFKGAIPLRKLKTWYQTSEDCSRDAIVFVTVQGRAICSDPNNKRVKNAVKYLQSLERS

T2: cyno CCL17 (Macaca fascicularis (cyno), UniProt Q8HYP9 24-94 (rhesus entry))
T2 construct: Biotinylated in the ELISA screens; also called cCCL17; Macaca fascicularis CCL17
T2 sequence: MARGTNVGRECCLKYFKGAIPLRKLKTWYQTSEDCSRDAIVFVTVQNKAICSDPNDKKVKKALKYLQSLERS


Tests used:
human CCL17 = biological target: T1, human CCL17; assay: ranking Fab ELISA with bt-human and bt-cyno CCL17
cyno CCL17 = biological target: T2, cyno CCL17; assay: ranking Fab ELISA with bt-human and bt-cyno CCL17

Binder	binding result (human CCL17)	binding result (cyno CCL17)
C17F319 Fab variant W100a to I (Fab, V domains shown, also called W→I) VH: EVQLVQSGAEVKKPGESLKISCKGSGYSFTSYWIGWVRQMPGKGLEWMGIIDPSDSDTRYSPSFQGQVTISADKSISTAYLQWSSLKASDTAMYYCARVGPADVIDSFDYWGQGTLVTVSS VL: DIVMTQSPDSLAVSLGERATINCKSSQSVLLSPWNSNQLAWYQQKPGQPPKLLIYGASTRESGVPDRFSGSGSGTDFTLTISSLQAEDVAVYYCQQYYLIPSTFGQGTKVEIK	binds	binds
C17F319 Fab variant W100a to T (Fab, V domains shown, also called W→T) VH: EVQLVQSGAEVKKPGESLKISCKGSGYSFTSYWIGWVRQMPGKGLEWMGIIDPSDSDTRYSPSFQGQVTISADKSISTAYLQWSSLKASDTAMYYCARVGPADVTDSFDYWGQGTLVTVSS VL: DIVMTQSPDSLAVSLGERATINCKSSQSVLLSPWNSNQLAWYQQKPGQPPKLLIYGASTRESGVPDRFSGSGSGTDFTLTISSLQAEDVAVYYCQQYYLIPSTFGQGTKVEIK	–	binds
C17F319 Fab variant W100a to Y (Fab, V domains shown, also called W→Y) VH: EVQLVQSGAEVKKPGESLKISCKGSGYSFTSYWIGWVRQMPGKGLEWMGIIDPSDSDTRYSPSFQGQVTISADKSISTAYLQWSSLKASDTAMYYCARVGPADVYDSFDYWGQGTLVTVSS VL: DIVMTQSPDSLAVSLGERATINCKSSQSVLLSPWNSNQLAWYQQKPGQPPKLLIYGASTRESGVPDRFSGSGSGTDFTLTISSLQAEDVAVYYCQQYYLIPSTFGQGTKVEIK	binds	binds

Results, then the binder that gave them:

binding result (human CCL17)	binding result (cyno CCL17)	Binder
binds	binds	C17F319 Fab variant W100a to F (Fab, V domains shown, also called W→F) VH: EVQLVQSGAEVKKPGESLKISCKGSGYSFTSYWIGWVRQMPGKGLEWMGIIDPSDSDTRYSPSFQGQVTISADKSISTAYLQWSSLKASDTAMYYCARVGPADVFDSFDYWGQGTLVTVSS VL: DIVMTQSPDSLAVSLGERATINCKSSQSVLLSPWNSNQLAWYQQKPGQPPKLLIYGASTRESGVPDRFSGSGSGTDFTLTISSLQAEDVAVYYCQQYYLIPSTFGQGTKVEIK
–	binds	C17F319 Fab variant W100a to R (Fab, V domains shown, also called W→R) VH: EVQLVQSGAEVKKPGESLKISCKGSGYSFTSYWIGWVRQMPGKGLEWMGIIDPSDSDTRYSPSFQGQVTISADKSISTAYLQWSSLKASDTAMYYCARVGPADVRDSFDYWGQGTLVTVSS VL: DIVMTQSPDSLAVSLGERATINCKSSQSVLLSPWNSNQLAWYQQKPGQPPKLLIYGASTRESGVPDRFSGSGSGTDFTLTISSLQAEDVAVYYCQQYYLIPSTFGQGTKVEIK

Reference: patent publication US20150125458A1 (Janssen / Centocor, published 2015)
